For test [1], the target named is T1, cynoNectin4-mFc (cyno, UniProt A0A2K5WES1 32-349).
T1 construct: Immobilized on the SPR chip; also called cyanoNectin4; not shown: mFc (mouse Fc)
T1 sequence: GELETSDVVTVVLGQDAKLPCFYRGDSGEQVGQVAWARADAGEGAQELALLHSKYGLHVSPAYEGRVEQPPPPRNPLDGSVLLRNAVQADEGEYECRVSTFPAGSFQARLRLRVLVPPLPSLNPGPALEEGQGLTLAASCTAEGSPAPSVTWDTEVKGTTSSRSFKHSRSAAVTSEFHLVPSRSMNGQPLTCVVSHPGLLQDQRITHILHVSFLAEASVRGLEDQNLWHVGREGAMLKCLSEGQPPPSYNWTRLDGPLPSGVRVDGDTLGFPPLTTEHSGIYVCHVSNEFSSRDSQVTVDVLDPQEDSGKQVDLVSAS
As to the kind of experiment: SPR, cynoNectin4-mFc immobilized, pH 7.4. Here is the method: (§1) Binding kinetics of anti-Nectin4 antibodies were measured by surface plasmon resonance using a SPR2/4 instrument (Sierra Sensors, Hamburg, Germany) and flat amine sensor chips. The SPR sensor contained four flow cells (FC1-FC4), each of which was addressed individually or in groups. huNectin4-His was immobilized in FC2, and cynoNectin4-mFc in FC4. No protein was immobilized in FC1 and FC3 which were used as control surfaces for FC2 and FC4, respectively.
(§2) All injections were done at a flow rate of 25 μL/min at 25° C. The sensor surface was activated with 1-ethyl-3-(3-dimethylaminopropyl)-carbodiimide (EDC) and N-hydroxysuccinimide (NHS) (200 mM/50 mM) for 480 seconds. HuNectin4-His (2 μg/mL in 10 mM NaAc, pH4.5) was injected for 480s and the surface was inactivated by injecting 1M ethanolamine-HCl for 480s. CynoNectin4 was immobilized using the same conditions as described for huNectin4-His, except that the cynoNectin4 was diluted into 10 mM NaAc buffer having pH 5.0. The control surface was activated and deactivated using the same conditions, but without injecting protein. PBST buffer (PBS pH 7.4 with 0.05% TWEEN20™) was used as running buffer for the surface preparation. The running solution was switched to PBST with 30 mM sodium bicarbonate with the pH adjusted as indicated in the figures before the analyte injections. The instrument was equilibrated with the running solution for one hour before the first analyte injection.
(§3) The off-rate was measured for 360s. The chip surface was regenerated after each cycle of interaction analysis by injecting 6 μL of 10 mM glycine (pH 2.0). Flow cells 1 and 3 without immobilized protein were used as control surfaces for reference subtraction.
In general terms: SPR reads the build-up and loss of mass on a sensor chip optically.

Test [2] addresses T1, cynoNectin4-mFc. The test is described as follows: SPR, cynoNectin4-mFc immobilized, pH 6.0. Here is the method:
as §1, §2, §3

For test [3], the target named is T2, cynoNectin4 antigen (cynomolgus (cyno), UniProt A0A2K5WES1 32-349).
T2 construct: construct not described; also called cynomolgus (cyno) Nectin-4
T2 sequence: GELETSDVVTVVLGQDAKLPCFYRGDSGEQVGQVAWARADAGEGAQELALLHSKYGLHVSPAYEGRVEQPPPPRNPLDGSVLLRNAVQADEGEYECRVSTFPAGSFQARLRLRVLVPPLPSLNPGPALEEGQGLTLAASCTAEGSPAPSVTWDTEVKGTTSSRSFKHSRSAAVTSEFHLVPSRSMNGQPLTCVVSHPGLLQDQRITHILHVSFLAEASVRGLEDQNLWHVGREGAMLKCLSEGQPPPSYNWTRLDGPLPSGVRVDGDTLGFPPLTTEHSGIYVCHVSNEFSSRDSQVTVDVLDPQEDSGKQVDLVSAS
The test is described as follows: ELISA, coated antigen, PSB pH 7.4. As for the experimental part: 1) Coat ELISA plates with 100 μL of 1 μg/mL recombinant human Nectin4 antigen or cynoNectin4 antigen in carbonate-bicarbonate coating buffer. […] 2) Cover plates with sealing film and incubate overnight at 4° C. [0444] 3) Decant plates and tap out residual liquid on a stack of paper towels. [0445] 4) Wash wells twice by dispensing 200 μL of pH 6.0 or pH 7.4 ELISA incubation buffer to the wells and completely aspirate the contents. [0446] 5) Add 200 μL of pH 6.0 or pH 7.4 ELISA incubation buffer to the wells. Cover with sealing film and place the plate onto a plate shaker set to 50 rpm for 60 minutes at room temperature. [0447] 6) Decant plates and tap out residual liquid on a stack of paper towels. […] 7) Serially dilute test articles in 3-fold dilutions starting at 3000 ng/mL in pH 6.0 or pH 7.4 ELISA incubation buffer. […] 8) Add 100 μL/well of diluted test articles to the plates [0450] 9) Cover with sealing film and place the plates onto a plate shaker set to 50 rpm for 60 minutes at room temperature. [0451] 10) Decant plates and tap out residual liquid on a stack of paper towels. [0452] 11) Wash wells three times by dispensing 200 μL of pH 6.0 or pH 7.4 ELISA wash buffer to the wells and completely aspirate the contents. […] 12) Dilute the HRP secondary antibody at 1:2500 in pH 6.0 or pH 7.4 ELISA incubation buffer. [0454] […] 14) Cover with sealing film and place the plates onto a plate shaker set to 50 rpm for 60 minutes at room temperature. […] 15) Decant plates and tap out residual liquid on a stack of paper towels. […] 16) Wash wells three times by dispensing 200 μL of pH 6.0 or pH 7.4 ELISA wash buffer to the wells and completely aspirate the contents. [0458] 17) Dispense 50 μL per well of the TMB substrate solution into all wells of the plates.
For orientation: ELISA stands for enzyme-linked immunosorbent assay.

Test [4] concerns the target T3, cyno Nectin-4 on cells (cyno, UniProt A0A2K5WES1 32-510).
T3 construct: whole, on cells; also called HEK293 cells expressing cyno Nectin-4; cyno Nectin-4 cells
T3 sequence: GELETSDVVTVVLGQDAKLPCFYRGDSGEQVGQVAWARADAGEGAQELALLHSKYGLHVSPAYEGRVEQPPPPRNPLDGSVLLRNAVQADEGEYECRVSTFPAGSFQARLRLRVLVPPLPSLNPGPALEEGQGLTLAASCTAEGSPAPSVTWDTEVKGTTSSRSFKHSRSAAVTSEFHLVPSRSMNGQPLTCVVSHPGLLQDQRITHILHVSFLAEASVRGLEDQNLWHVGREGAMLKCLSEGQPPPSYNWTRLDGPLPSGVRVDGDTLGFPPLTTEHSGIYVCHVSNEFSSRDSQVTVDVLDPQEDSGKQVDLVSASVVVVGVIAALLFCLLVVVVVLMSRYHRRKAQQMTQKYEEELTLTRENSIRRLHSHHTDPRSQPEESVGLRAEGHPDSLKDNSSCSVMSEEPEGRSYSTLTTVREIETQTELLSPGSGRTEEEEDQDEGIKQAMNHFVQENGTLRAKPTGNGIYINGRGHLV
As to the kind of experiment: FACS, HEK293 cells expressing cyno Nectin-4.

Results on 6 molecules are retold here after patent US20230235054A1 (BIOATLA, published 2023).

B1: BAP-143-wildtype (antibody, V domains shown)
VH: EVQLVESGGGLVQPGGSLRLSCAASGFTFSSYNMNWVRQAPGKGLEWVSYISSSSSTIYYADSVKGRFTISRDNAKNSLSLQMNSLRDEDTAVYYCARAYYYGMDVWGQGTTVTVSS
VL: DIQMTQSPSSVSASVGDRVTITCRASQGISGWLAWYQQKPGKAPKFLIYAASTLQSGVPSRFSGSGSGTDFTLTISSLQPEDFATYYCQQANSFPPTFGGGTKVEIK
notes: 150 kDa used in SPR; also called BAP143-00-00; benchmark (BM)
Broadly, the Kd is a measure of binding affinity in units of concentration. One may read the EC50 as the midpoint of the concentration-response curve. Read a low EC50 as an effect from little substance. Turning to B1, the Kd in test [1] came out at 0.244 nM; in test [2] it was 0.311 nM. In test [3], this molecule showed a half-maximal effective concentration (EC50) of 0.0128 µg/mL.

B2: BAP-143-06-24-16 (antibody, V domains shown)
VH: EVQLVQSGAEVKKPGATVKISCKVSGFTFSSYNMNWIRQSPSRGLEWLGYISSSSSTIYYADSVKGRFTISRDNSKNTLYLQMNSLRAEDTAVYYCARAYYYGDDVWGQGTLVTVSS
VL: DIQMTQSPSSVSASVGDRVTITCHASQGISGWLAWYQQKPGKAPKFLIYAASTLQSGVPSRFSGSGSGTDFTLTISSLQPEDFATYYCQQANSFPPTFGGGTKVEIK
notes: Used as a conjugate with a linker payload (CAB ADC)
As a reminder, the koff is the rate constant with which the complex falls apart. One may read the kon as the second-order rate constant of association. Low values mean slower complex formation, high ones faster complex formation. In test [1], B2 gave an equilibrium dissociation constant (Kd) of 0.126 nM, a koff of 8.26e-05 s⁻¹ and an on-rate (kon) of 655000 M⁻¹ s⁻¹. For the same molecule, in test [2], the dissociation constant Kd came to 0.207 nM, the koff was determined as 0.000579 s⁻¹ and the on-rate constant (kon) came out at 2.8e+06 M⁻¹ s⁻¹. In test [4], the “Ratio (pH 7.4/6.0) of EC50” value worked out at 1.4. Besides, the response in test [3] was half-maximal at 0.0282 µg/mL (EC50).

B3: BAP-143-06-33-03 (antibody, V domains shown)
VH: QVQLVQSGAEVKKPGASVKVSCKASGFTFSSYNMNWVRQARGQRLEWIGYISSSSSTIYYADSVKGRFTISRDNSKNTLYLQMNSLRAEDTAVYYCARAYYYGMDKWGQGTLVTVSS
VL: DIQMTQSPSSVSASVGDRVTITCRASQGISGWLAWYQQKPGKAPKFLIYAASTLQSGVPSRFSGSGSGTDFTLTISSLQPEDFATYYCQQANSEPPTFGGGTKVEIK
notes: as for B2
Regarding B3, the “Ratio (pH 7.4/6.0) of EC50” value in test [4] came to 2.7. Also, in test [3], the response was half-maximal at 0.0723 µg/mL (EC50).

B4: BAP-143-00-01 (antibody, V domains shown)
VH: EVQLVESGGGLVQPGGSLRLSCAASGFTFSSYNMNWVRQAPGKGLEWVSYISSSSSTIYYADSVKGRFTISRDNAKNSLSLQMNSLRDEDTAVYYCARAYYYGMDVWGQGTTVTVSS
VL: DIQMTQSPSSVSASVGDRVTITCRASQGISGWEAWYQQKPGKAPKFLIYAASTLQSGVPSRFSGSGSGTDFTLTISSLQPEDFATYYCQQANSFPPTFGGGTKVEIK
notes: as for B2
With B4, in test [1], the dissociation constant (Kd) turned out to be 3.25 nM, the koff came to 0.000781 s⁻¹ and the association rate constant (kon) came out at 240000 M⁻¹ s⁻¹. In test [2], this molecule returned a dissociation constant Kd of 1.85 nM, a koff of 0.00142 s⁻¹ and an on-rate constant (kon) of 769000 M⁻¹ s⁻¹. Moreover, the “Ratio (pH 7.4/6.0) of EC50” value in test [4] came to 2.

B5: BAP-143-06-33-16 (antibody, V domains shown)
VH: EVQLVQSGAEVKKPGATVKISCKVSGFTFSSYNMNWIRQSPSRGLEWLGYISSSSSTIYYADSVKGRFTISRDNSKNTLYLQMNSLRAEDTAVYYCARAYYYGDDVWGQGTLVTVSS
VL: DIQMTQSPSSVSASVGDRVTITCRASQGISGWEAWYQQKPGKAPKFLIYAASTLQSGVPSRFSGSGSGTDFTLTISSLQPEDFATYYCQQANSFPPTFGGGTKVEIK
notes: as for B2
As for B5, in test [1], the Kd was determined as 2.37 nM, the koff worked out at 0.000175 s⁻¹ and the kon came out at 73900 M⁻¹ s⁻¹. In test [2], this molecule came in with a Kd of 0.187 nM, a koff of 0.000273 s⁻¹ and a kon of 1.46e+06 M⁻¹ s⁻¹. The “Ratio (pH 7.4/6.0) of EC50” value in test [4] came out at 1.5.

B6: BAP-143-07-03-12 (antibody, V domains shown)
VH: EVQLVESGGGLVQPGGSLRLSCAASGFTFSSYNMNWVRQAPGKGLEWVSYISSSSSTIYYADSVKGRFTISRDNAKNSLSLQMNSLRDEDTAVYYCARAYYYGMDKWGQGTTVTVSS
VL: DIQMTQSPSSVSASVGDRVTITCRASQGISGWEAWYQQKPGKAPKFLIYAASTLQSGVPSRFSGSGSGTDFTLTISSLQPEDFATYYCQQANSFPPTFGGGTKVEIK
notes: as for B2
In test [1], B6 came in with an equilibrium dissociation constant (Kd) of 1.85 nM, a koff of 0.000651 s⁻¹ and a kon of 352000 M⁻¹ s⁻¹. Besides, in test [2], the equilibrium dissociation constant (Kd) is 1.15 nM, the koff was 0.00113 s⁻¹ and the kon was determined as 983000 M⁻¹ s⁻¹. Besides, the “Ratio (pH 7.4/6.0) of EC50” value in test [4] was determined as 1.8. Besides, the midpoint of the response in test [3], the EC50, lay at 0.086 µg/mL.
